B1: SEQ ID NO: 199 (peptide)
peptide: H[Aib]EGTFTSDYSELLEGAALQRFIQWLV-NH2
modifications: N-terminus assumed
SMILES: CC[C@H](C)[C@H](NC(=O)[C@H](Cc1ccccc1)NC(=O)[C@H](CCCNC(=N)N)NC(=O)[C@H](CCC(N)=O)NC(=O)[C@H](CC(C)C)NC(=O)[C@H](C)NC(=O)[C@H](C)NC(=O)CNC(=O)[C@H](CCC(=O)O)NC(=O)[C@H](CC(C)C)NC(=O)[C@H](CC(C)C)NC(=O)[C@H](CCC(=O)O)NC(=O)[C@H](CO)NC(=O)[C@H](Cc1ccc(O)cc1)NC(=O)[C@H](CC(=O)O)NC(=O)[C@H](CO)NC(=O)[C@@H](NC(=O)[C@H](Cc1ccccc1)NC(=O)[C@@H](NC(=O)CNC(=O)[C@H](CCC(=O)O)NC(=O)C(C)(C)NC(=O)[C@@H](N)Cc1c[nH]cn1)[C@@H](C)O)[C@@H](C)O)C(=O)N[C@@H](CCC(N)=O)C(=O)N[C@@H](Cc1c[nH]c2ccccc12)C(=O)N[C@@H](CC(C)C)C(=O)N[C@H](C(N)=O)C(C)C
B2: SEQ ID NO: 193 (peptide)
peptide: H[Aib]EGTFTSDWSELLEGAALQRFIQWLV-NH2
modifications: N-terminus assumed
SMILES: CC[C@H](C)[C@H](NC(=O)[C@H](Cc1ccccc1)NC(=O)[C@H](CCCNC(=N)N)NC(=O)[C@H](CCC(N)=O)NC(=O)[C@H](CC(C)C)NC(=O)[C@H](C)NC(=O)[C@H](C)NC(=O)CNC(=O)[C@H](CCC(=O)O)NC(=O)[C@H](CC(C)C)NC(=O)[C@H](CC(C)C)NC(=O)[C@H](CCC(=O)O)NC(=O)[C@H](CO)NC(=O)[C@H](Cc1c[nH]c2ccccc12)NC(=O)[C@H](CC(=O)O)NC(=O)[C@H](CO)NC(=O)[C@@H](NC(=O)[C@H](Cc1ccccc1)NC(=O)[C@@H](NC(=O)CNC(=O)[C@H](CCC(=O)O)NC(=O)C(C)(C)NC(=O)[C@@H](N)Cc1c[nH]cn1)[C@@H](C)O)[C@@H](C)O)C(=O)N[C@@H](CCC(N)=O)C(=O)N[C@@H](Cc1c[nH]c2ccccc12)C(=O)N[C@@H](CC(C)C)C(=O)N[C@H](C(N)=O)C(C)C
B3: SEQ ID NO: 195 (peptide)
peptide: H[Aib]EGTFTSDYSGLLEGAALQRFIQWLV-NH2
modifications: N-terminus assumed
SMILES: CC[C@H](C)[C@H](NC(=O)[C@H](Cc1ccccc1)NC(=O)[C@H](CCCNC(=N)N)NC(=O)[C@H](CCC(N)=O)NC(=O)[C@H](CC(C)C)NC(=O)[C@H](C)NC(=O)[C@H](C)NC(=O)CNC(=O)[C@H](CCC(=O)O)NC(=O)[C@H](CC(C)C)NC(=O)[C@H](CC(C)C)NC(=O)CNC(=O)[C@H](CO)NC(=O)[C@H](Cc1ccc(O)cc1)NC(=O)[C@H](CC(=O)O)NC(=O)[C@H](CO)NC(=O)[C@@H](NC(=O)[C@H](Cc1ccccc1)NC(=O)[C@@H](NC(=O)CNC(=O)[C@H](CCC(=O)O)NC(=O)C(C)(C)NC(=O)[C@@H](N)Cc1c[nH]cn1)[C@@H](C)O)[C@@H](C)O)C(=O)N[C@@H](CCC(N)=O)C(=O)N[C@@H](Cc1c[nH]c2ccccc12)C(=O)N[C@@H](CC(C)C)C(=O)N[C@H](C(N)=O)C(C)C
B4: SEQ ID NO: 197 (peptide)
peptide: H[Aib]EGTFTSDYS[Aib]LLEGAALQRFIQWLV-NH2
modifications: N-terminus assumed
SMILES: CC[C@H](C)[C@H](NC(=O)[C@H](Cc1ccccc1)NC(=O)[C@H](CCCNC(=N)N)NC(=O)[C@H](CCC(N)=O)NC(=O)[C@H](CC(C)C)NC(=O)[C@H](C)NC(=O)[C@H](C)NC(=O)CNC(=O)[C@H](CCC(=O)O)NC(=O)[C@H](CC(C)C)NC(=O)[C@H](CC(C)C)NC(=O)C(C)(C)NC(=O)[C@H](CO)NC(=O)[C@H](Cc1ccc(O)cc1)NC(=O)[C@H](CC(=O)O)NC(=O)[C@H](CO)NC(=O)[C@@H](NC(=O)[C@H](Cc1ccccc1)NC(=O)[C@@H](NC(=O)CNC(=O)[C@H](CCC(=O)O)NC(=O)C(C)(C)NC(=O)[C@@H](N)Cc1c[nH]cn1)[C@@H](C)O)[C@@H](C)O)C(=O)N[C@@H](CCC(N)=O)C(=O)N[C@@H](Cc1c[nH]c2ccccc12)C(=O)N[C@@H](CC(C)C)C(=O)N[C@H](C(N)=O)C(C)C
B5: SEQ ID NO: 190 (peptide)
peptide: H[Aib]EGTFTSDWSFLLEGAALQRFIQWLV-NH2
modifications: N-terminus assumed
SMILES: CC[C@H](C)[C@H](NC(=O)[C@H](Cc1ccccc1)NC(=O)[C@H](CCCNC(=N)N)NC(=O)[C@H](CCC(N)=O)NC(=O)[C@H](CC(C)C)NC(=O)[C@H](C)NC(=O)[C@H](C)NC(=O)CNC(=O)[C@H](CCC(=O)O)NC(=O)[C@H](CC(C)C)NC(=O)[C@H](CC(C)C)NC(=O)[C@H](Cc1ccccc1)NC(=O)[C@H](CO)NC(=O)[C@H](Cc1c[nH]c2ccccc12)NC(=O)[C@H](CC(=O)O)NC(=O)[C@H](CO)NC(=O)[C@@H](NC(=O)[C@H](Cc1ccccc1)NC(=O)[C@@H](NC(=O)CNC(=O)[C@H](CCC(=O)O)NC(=O)C(C)(C)NC(=O)[C@@H](N)Cc1c[nH]cn1)[C@@H](C)O)[C@@H](C)O)C(=O)N[C@@H](CCC(N)=O)C(=O)N[C@@H](Cc1c[nH]c2ccccc12)C(=O)N[C@@H](CC(C)C)C(=O)N[C@H](C(N)=O)C(C)C
B6: SEQ ID NO: 191 (peptide)
peptide: H[Aib]EGTFTSDWSWLLEGAALQRFIQWLV-NH2
modifications: N-terminus assumed
SMILES: CC[C@H](C)[C@H](NC(=O)[C@H](Cc1ccccc1)NC(=O)[C@H](CCCNC(=N)N)NC(=O)[C@H](CCC(N)=O)NC(=O)[C@H](CC(C)C)NC(=O)[C@H](C)NC(=O)[C@H](C)NC(=O)CNC(=O)[C@H](CCC(=O)O)NC(=O)[C@H](CC(C)C)NC(=O)[C@H](CC(C)C)NC(=O)[C@H](Cc1c[nH]c2ccccc12)NC(=O)[C@H](CO)NC(=O)[C@H](Cc1c[nH]c2ccccc12)NC(=O)[C@H](CC(=O)O)NC(=O)[C@H](CO)NC(=O)[C@@H](NC(=O)[C@H](Cc1ccccc1)NC(=O)[C@@H](NC(=O)CNC(=O)[C@H](CCC(=O)O)NC(=O)C(C)(C)NC(=O)[C@@H](N)Cc1c[nH]cn1)[C@@H](C)O)[C@@H](C)O)C(=O)N[C@@H](CCC(N)=O)C(=O)N[C@@H](Cc1c[nH]c2ccccc12)C(=O)N[C@@H](CC(C)C)C(=O)N[C@H](C(N)=O)C(C)C
B7: SEQ ID NO: 192 (peptide)
peptide: H[Aib]EGTFTSDWS[Aib]LLEGAALQRFIQWLV-NH2
modifications: N-terminus assumed
SMILES: CC[C@H](C)[C@H](NC(=O)[C@H](Cc1ccccc1)NC(=O)[C@H](CCCNC(=N)N)NC(=O)[C@H](CCC(N)=O)NC(=O)[C@H](CC(C)C)NC(=O)[C@H](C)NC(=O)[C@H](C)NC(=O)CNC(=O)[C@H](CCC(=O)O)NC(=O)[C@H](CC(C)C)NC(=O)[C@H](CC(C)C)NC(=O)C(C)(C)NC(=O)[C@H](CO)NC(=O)[C@H](Cc1c[nH]c2ccccc12)NC(=O)[C@H](CC(=O)O)NC(=O)[C@H](CO)NC(=O)[C@@H](NC(=O)[C@H](Cc1ccccc1)NC(=O)[C@@H](NC(=O)CNC(=O)[C@H](CCC(=O)O)NC(=O)C(C)(C)NC(=O)[C@@H](N)Cc1c[nH]cn1)[C@@H](C)O)[C@@H](C)O)C(=O)N[C@@H](CCC(N)=O)C(=O)N[C@@H](Cc1c[nH]c2ccccc12)C(=O)N[C@@H](CC(C)C)C(=O)N[C@H](C(N)=O)C(C)C
B8: SEQ ID NO: 189 (peptide)
peptide: H[Aib]EGTFTSDWSYLLEGAALQRFIQWLV-NH2
modifications: N-terminus assumed
SMILES: CC[C@H](C)[C@H](NC(=O)[C@H](Cc1ccccc1)NC(=O)[C@H](CCCNC(=N)N)NC(=O)[C@H](CCC(N)=O)NC(=O)[C@H](CC(C)C)NC(=O)[C@H](C)NC(=O)[C@H](C)NC(=O)CNC(=O)[C@H](CCC(=O)O)NC(=O)[C@H](CC(C)C)NC(=O)[C@H](CC(C)C)NC(=O)[C@H](Cc1ccc(O)cc1)NC(=O)[C@H](CO)NC(=O)[C@H](Cc1c[nH]c2ccccc12)NC(=O)[C@H](CC(=O)O)NC(=O)[C@H](CO)NC(=O)[C@@H](NC(=O)[C@H](Cc1ccccc1)NC(=O)[C@@H](NC(=O)CNC(=O)[C@H](CCC(=O)O)NC(=O)C(C)(C)NC(=O)[C@@H](N)Cc1c[nH]cn1)[C@@H](C)O)[C@@H](C)O)C(=O)N[C@@H](CCC(N)=O)C(=O)N[C@@H](Cc1c[nH]c2ccccc12)C(=O)N[C@@H](CC(C)C)C(=O)N[C@H](C(N)=O)C(C)C
B9: SEQ ID NO: 198 (peptide)
peptide: H[Aib]EGTFTSDYSVLLEGAALQRFIQWLV-NH2
modifications: N-terminus assumed
SMILES: CC[C@H](C)[C@H](NC(=O)[C@H](Cc1ccccc1)NC(=O)[C@H](CCCNC(=N)N)NC(=O)[C@H](CCC(N)=O)NC(=O)[C@H](CC(C)C)NC(=O)[C@H](C)NC(=O)[C@H](C)NC(=O)CNC(=O)[C@H](CCC(=O)O)NC(=O)[C@H](CC(C)C)NC(=O)[C@H](CC(C)C)NC(=O)[C@@H](NC(=O)[C@H](CO)NC(=O)[C@H](Cc1ccc(O)cc1)NC(=O)[C@H](CC(=O)O)NC(=O)[C@H](CO)NC(=O)[C@@H](NC(=O)[C@H](Cc1ccccc1)NC(=O)[C@@H](NC(=O)CNC(=O)[C@H](CCC(=O)O)NC(=O)C(C)(C)NC(=O)[C@@H](N)Cc1c[nH]cn1)[C@@H](C)O)[C@@H](C)O)C(C)C)C(=O)N[C@@H](CCC(N)=O)C(=O)N[C@@H](Cc1c[nH]c2ccccc12)C(=O)N[C@@H](CC(C)C)C(=O)N[C@H](C(N)=O)C(C)C

Numbered stars: 1 amine (or outer) side, 2 acyl side, 3 side chain; on linkers, the order of the positions; unused ones are H or OH. Square brackets hold non-standard residues; d marks the D form. Side chains are listed from the residue outwards. Ends that are not written are not given here. * marks the point of attachment. C20 diacid = O=C(O)CCCCCCCCCCCCCCCCCCC(=O)*; γGlu = O=C(O)[C@H](CCC(=O)[*:2])N[*:1]; AEEA = NCCOCCOCC(=O)O; Aib = CC(C)(N)C(=O)O

For one assay, the target named is human secretin receptor (hSCTR) (human, UniProt P47872 23-440). Briefly: cell-based or functional assay.
Chain of human secretin receptor (hSCTR) (P47872 23-440): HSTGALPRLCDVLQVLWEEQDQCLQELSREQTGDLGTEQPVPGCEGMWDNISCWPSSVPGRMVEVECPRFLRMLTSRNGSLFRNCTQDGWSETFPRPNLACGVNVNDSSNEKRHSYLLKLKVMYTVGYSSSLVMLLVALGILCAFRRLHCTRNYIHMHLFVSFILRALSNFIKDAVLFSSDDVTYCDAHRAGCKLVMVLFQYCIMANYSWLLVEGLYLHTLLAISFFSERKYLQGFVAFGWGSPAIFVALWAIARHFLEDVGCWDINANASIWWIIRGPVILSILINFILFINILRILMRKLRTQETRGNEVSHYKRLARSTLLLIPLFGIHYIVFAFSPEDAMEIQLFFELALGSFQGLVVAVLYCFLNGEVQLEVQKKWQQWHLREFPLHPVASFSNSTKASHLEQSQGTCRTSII
B1: the “pEC50 hSCTR” value is 8.3 -log M.
Still for that read-out and setting: under B2 stands 7.9 -log M; under H[Aib]EGTFTSDVSTLK([AEEA-AEEA-γGlu-C20 diacid])ETAASQRFLEHLV-NH2 [SEQ ID NO: 20], 6.4 -log M; under B3, 8 -log M.
The same measure, in the same setting: under B4 stands 8.1 -log M; under B5, 7 -log M; under B6, 7.2 -log M.
B7: the “pEC50 hSCTR” value was 7.3 -log M.
Take H[Aib]EGTFTSDYSYLK([AEEA-AEEA-γGlu-C20 diacid])EEA[Aib]LQRFLEHLV-NH2 [SEQ ID NO: 196]: the “pEC50 hSCTR” value was 7.7 -log M.
Still for that read-out and setting: then B8, with 6.8 -log M.
Same read-out and setting: then B9, with 8.3 -log M.

In the next assay the target is human GLP-1 receptor (hGLP1R) (human, UniProt P43220 24-463). The experiment in a line: cell-based or functional assay.
For B1, the “pEC50 hGLPR1” value is 10.6 -log M.
Take B2: the “pEC50 hGLPR1” value was 10.6 -log M.
Same read-out and setting: under H[Aib]EGTFTSDVSTLK([AEEA-AEEA-γGlu-C20 diacid])ETAASQRFLEHLV-NH2 [SEQ ID NO: 20] stands 10.7 -log M.
Same read-out and setting: under B3 stands 10.6 -log M; under B4, 10.8 -log M; under B5, 10.2 -log M.
Same read-out and setting: under B6 stands 10.1 -log M; under B7, 9.9 -log M; under H[Aib]EGTFTSDYSYLK([AEEA-AEEA-γGlu-C20 diacid])EEA[Aib]LQRFLEHLV-NH2 [SEQ ID NO: 196], 10.9 -log M.
On to B8, for which the “pEC50 hGLPR1” value was 10.8 -log M.
With B9, the “pEC50 hGLPR1” value was 10.6 -log M.

The record behind these values is US20260201008A1, “SECRETIN-DERIVED GLP1R SELECTIVE AGONISTS” (GUBRA A/S, priority 2023, published 2026).
